# Measured values published in publication PMC9482650, “Quantitative fragmentomics allow affinity mapping of interactomes” (Nature Communications, 2022).
# T1: APBA1_2, Q02410
# T1 sequence (Q02410 742-832, limits assumed, looked up): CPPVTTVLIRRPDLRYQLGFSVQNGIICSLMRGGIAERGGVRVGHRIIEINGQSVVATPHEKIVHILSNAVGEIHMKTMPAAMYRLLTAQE
# T2: GRIP1_2, Q9Y3R0
# T2 sequence (Q9Y3R0 145-248, limits assumed, looked up): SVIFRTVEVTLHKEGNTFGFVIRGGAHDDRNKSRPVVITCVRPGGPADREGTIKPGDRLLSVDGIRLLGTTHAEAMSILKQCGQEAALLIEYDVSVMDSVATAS
# T3: PCLO, Q9Y6V0
# T3 sequence (Q9Y6V0 4491-4600, limits assumed, looked up): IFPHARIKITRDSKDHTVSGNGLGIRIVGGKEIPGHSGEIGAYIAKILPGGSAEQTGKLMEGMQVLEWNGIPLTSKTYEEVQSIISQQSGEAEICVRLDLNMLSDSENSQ
# T4: GRIP1_3, Q9Y3R0
# T4 sequence (Q9Y3R0 247-346, limits assumed, looked up): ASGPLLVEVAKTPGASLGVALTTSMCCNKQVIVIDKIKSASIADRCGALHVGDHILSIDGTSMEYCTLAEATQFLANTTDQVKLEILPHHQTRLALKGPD
# T5: HTRA4, P83105
# T5 sequence (P83105 378-476, limits assumed, looked up): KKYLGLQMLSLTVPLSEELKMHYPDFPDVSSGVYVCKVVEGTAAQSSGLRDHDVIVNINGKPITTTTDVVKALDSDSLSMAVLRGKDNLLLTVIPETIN
# T6: APBA1_1, Q02410
# T6 sequence (Q02410 651-752, limits assumed, looked up): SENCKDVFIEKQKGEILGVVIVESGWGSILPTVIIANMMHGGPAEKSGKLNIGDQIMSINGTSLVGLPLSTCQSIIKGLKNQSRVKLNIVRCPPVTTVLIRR
# T7: GRIP1_4, Q9Y3R0
# T7 sequence (Q9Y3R0 467-571, limits assumed, looked up): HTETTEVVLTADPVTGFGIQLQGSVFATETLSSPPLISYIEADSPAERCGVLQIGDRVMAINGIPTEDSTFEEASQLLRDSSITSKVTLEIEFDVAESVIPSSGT
# T8: LRRC7, Q96NW7
# T8 sequence (Q96NW7 1440-1537, limits assumed, looked up): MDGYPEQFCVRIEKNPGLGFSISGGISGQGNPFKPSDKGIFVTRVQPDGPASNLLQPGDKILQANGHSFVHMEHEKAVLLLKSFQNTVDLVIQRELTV
# T9: PARD3B_1, Q8TEW8
# T9 sequence (Q8TEW8 196-299, limits assumed, looked up): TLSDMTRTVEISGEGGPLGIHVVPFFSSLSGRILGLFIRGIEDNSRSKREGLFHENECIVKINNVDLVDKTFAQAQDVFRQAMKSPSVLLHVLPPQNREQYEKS
# T10: TIAM2, Q8IVF5
# T10 sequence (Q8IVF5 885-986, limits assumed, looked up): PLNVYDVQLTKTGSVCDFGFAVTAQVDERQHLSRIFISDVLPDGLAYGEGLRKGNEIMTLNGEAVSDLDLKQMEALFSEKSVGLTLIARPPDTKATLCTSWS
# T11: LIN7A, O14910
# T11 sequence (O14910 103-200, limits assumed, looked up): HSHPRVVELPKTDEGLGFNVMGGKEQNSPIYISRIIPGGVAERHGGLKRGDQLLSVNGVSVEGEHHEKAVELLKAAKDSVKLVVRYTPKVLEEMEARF
# Target: FRMPD2_2, Q68DX3
# Experiment: holdup assay
# Parameters: key: below the threshold = too weak to quantify, mostly under pKd 3.1 to 4
# Conditions: plain residues with an end cap or a label only (N-terminal biotin on a linker: ado-ado)
# FRMPD2_2, Q68DX3, sequence (Q68DX3 944-1038): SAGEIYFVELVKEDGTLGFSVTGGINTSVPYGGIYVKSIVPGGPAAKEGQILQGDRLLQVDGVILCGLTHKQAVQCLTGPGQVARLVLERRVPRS
row,Binder,pKd
1,"TRKRSGEAAV [PFKM, P08237]",below the threshold

# Target: DLG5_1, Q8TDM6
# Experiment: holdup assay
# Parameters: key: below the threshold = too weak to quantify, mostly under pKd 3.1 to 4
# Conditions: plain residues with an end cap or a label only (N-terminal biotin on a linker: ado-ado)
# DLG5_1, Q8TDM6, sequence (Q8TDM6 617-713): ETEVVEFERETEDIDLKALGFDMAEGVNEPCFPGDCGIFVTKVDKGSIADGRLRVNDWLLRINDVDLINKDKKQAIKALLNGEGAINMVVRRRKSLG
row,Binder,pKd
1,"TRKRSGEAAV [PFKM, P08237]",below the threshold

# Target: MAGI2_2, Q86UL8
# Experiment: holdup assay
# Parameters: key: below the threshold = too weak to quantify, mostly under pKd 3.1 to 4
# Conditions: plain residues with an end cap or a label only (N-terminal biotin on a linker: ado-ado)
# MAGI2_2, Q86UL8, sequence (Q86UL8 410-522): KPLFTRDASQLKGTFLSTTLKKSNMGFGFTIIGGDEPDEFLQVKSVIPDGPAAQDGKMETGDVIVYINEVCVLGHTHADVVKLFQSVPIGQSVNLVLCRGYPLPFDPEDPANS
row,Binder,pKd
1,"TRKRSGEAAV [PFKM, P08237]",4.09

# Target: PICK1, Q9NRD5
# Experiment: holdup assay
# Parameters: key: below the threshold = too weak to quantify, mostly under pKd 3.1 to 4
# Conditions: plain residues with an end cap or a label only (N-terminal biotin on a linker: ado-ado)
# PICK1, Q9NRD5, sequence (Q9NRD5 17-115): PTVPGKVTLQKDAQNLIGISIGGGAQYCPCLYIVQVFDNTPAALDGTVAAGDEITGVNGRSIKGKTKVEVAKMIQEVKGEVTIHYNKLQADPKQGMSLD
row,Binder,pKd
1,"TRKRSGEAAV [PFKM, P08237]",4.18

# Target: Inadl_9, Q8NI35
# Experiment: holdup assay
# Parameters: key: below the threshold = too weak to quantify, mostly under pKd 3.1 to 4
# Conditions: plain residues with an end cap or a label only (N-terminal biotin on a linker: ado-ado)
# Inadl_9, Q8NI35, sequence (Q8NI35 1530-1615): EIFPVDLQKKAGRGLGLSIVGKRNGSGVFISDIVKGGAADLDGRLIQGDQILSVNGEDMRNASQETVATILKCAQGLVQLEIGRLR
row,Binder,pKd
1,"TRKRSGEAAV [PFKM, P08237]",below the threshold

# Target: Inadl_8, Q8NI35
# Experiment: holdup assay
# Parameters: key: below the threshold = too weak to quantify, mostly under pKd 3.1 to 4
# Conditions: plain residues with an end cap or a label only (N-terminal biotin on a linker: ado-ado)
# Inadl_8, Q8NI35, sequence (Q8NI35 1425-1530): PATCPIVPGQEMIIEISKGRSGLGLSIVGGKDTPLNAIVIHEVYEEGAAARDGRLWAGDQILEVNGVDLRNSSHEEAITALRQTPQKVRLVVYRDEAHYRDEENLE
row,Binder,pKd
1,"TRKRSGEAAV [PFKM, P08237]",3.57

# Target: T1, APBA1_2, Q02410
# Experiment: holdup assay
# Parameters: key: below the threshold = too weak to quantify, mostly under pKd 3.1 to 4
# Conditions: plain residues with an end cap or a label only (N-terminal biotin on a linker: ado-ado)
row,Binder,pKd
1,"TRKRSGEAAV [PFKM, P08237]",3.9

# Target: T2, GRIP1_2, Q9Y3R0
# Experiment: holdup assay
# Parameters: key: below the threshold = too weak to quantify, mostly under pKd 3.1 to 4
# Conditions: plain residues with an end cap or a label only (N-terminal biotin on a linker: ado-ado)
row,Binder,pKd
1,"TRKRSGEAAV [PFKM, P08237]",below the threshold

# Target: GOPC, Q9HD26
# Experiment: holdup assay
# Parameters: key: below the threshold = too weak to quantify, mostly under pKd 3.1 to 4
# Conditions: plain residues with an end cap or a label only (N-terminal biotin on a linker: ado-ado)
row,Binder,pKd
1,"TRKRSGEAAV [PFKM, P08237]",below the threshold

# Target: T3, PCLO, Q9Y6V0
# Experiment: holdup assay
# Parameters: key: below the threshold = too weak to quantify, mostly under pKd 3.1 to 4
# Conditions: plain residues with an end cap or a label only (N-terminal biotin on a linker: ado-ado)
row,Binder,pKd
1,"TRKRSGEAAV [PFKM, P08237]",below the threshold

# Target: GRIP2_3, Q9C0E4
# Experiment: holdup assay
# Parameters: key: below the threshold = too weak to quantify, mostly under pKd 3.1 to 4
# Conditions: plain residues with an end cap or a label only (N-terminal biotin on a linker: ado-ado)
# GRIP2_3, Q9C0E4, sequence (Q9C0E4 238-339): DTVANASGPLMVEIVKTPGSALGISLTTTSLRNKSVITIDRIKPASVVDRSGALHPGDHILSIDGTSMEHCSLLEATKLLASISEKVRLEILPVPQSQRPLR
row,Binder,pKd
1,"TRKRSGEAAV [PFKM, P08237]",below the threshold

# Target: ARHGEF12, Q9NZN5-2
# Experiment: holdup assay
# Parameters: key: below the threshold = too weak to quantify, mostly under pKd 3.1 to 4
# Conditions: plain residues with an end cap or a label only (N-terminal biotin on a linker: ado-ado)
# ARHGEF12, Q9NZN5-2, sequence (Q9NZN5 other isoform, or with tags, fused parts or gaps): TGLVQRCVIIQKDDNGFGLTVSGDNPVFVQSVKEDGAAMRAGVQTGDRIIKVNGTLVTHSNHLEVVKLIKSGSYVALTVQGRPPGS
row,Binder,pKd
1,"TRKRSGEAAV [PFKM, P08237]",below the threshold

# Target: T4, GRIP1_3, Q9Y3R0
# Experiment: holdup assay
# Parameters: key: below the threshold = too weak to quantify, mostly under pKd 3.1 to 4
# Conditions: plain residues with an end cap or a label only (N-terminal biotin on a linker: ado-ado)
row,Binder,pKd
1,"TRKRSGEAAV [PFKM, P08237]",below the threshold

# Target: PDZRN4_1, Q6ZMN7
# Experiment: holdup assay
# Parameters: key: below the threshold = too weak to quantify, mostly under pKd 3.1 to 4
# Conditions: plain residues with an end cap or a label only (N-terminal biotin on a linker: ado-ado)
# PDZRN4_1, Q6ZMN7, sequence (Q6ZMN7 213-318): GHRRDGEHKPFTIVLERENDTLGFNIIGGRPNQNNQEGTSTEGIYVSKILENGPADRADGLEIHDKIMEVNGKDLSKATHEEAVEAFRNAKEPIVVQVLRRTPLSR
row,Binder,pKd
1,"TRKRSGEAAV [PFKM, P08237]",below the threshold

# Target: T5, HTRA4, P83105
# Experiment: holdup assay
# Parameters: key: below the threshold = too weak to quantify, mostly under pKd 3.1 to 4
# Conditions: plain residues with an end cap or a label only (N-terminal biotin on a linker: ado-ado)
row,Binder,pKd
1,"TRKRSGEAAV [PFKM, P08237]",below the threshold

# Target: NHERF2_2, Q15599
# Experiment: holdup assay
# Parameters: key: below the threshold = too weak to quantify, mostly under pKd 3.1 to 4
# Conditions: plain residues with an end cap or a label only (N-terminal biotin on a linker: ado-ado)
# NHERF2_2, Q15599, sequence (Q15599 142-238): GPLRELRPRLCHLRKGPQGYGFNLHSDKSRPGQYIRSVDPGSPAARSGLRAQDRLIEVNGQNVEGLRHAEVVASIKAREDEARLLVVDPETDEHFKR
row,Binder,pKd
1,"TRKRSGEAAV [PFKM, P08237]",below the threshold

# Target: Inadl_2, Q8NI35
# Experiment: holdup assay
# Parameters: key: below the threshold = too weak to quantify, mostly under pKd 3.1 to 4
# Conditions: plain residues with an end cap or a label only (N-terminal biotin on a linker: ado-ado)
# Inadl_2, Q8NI35, sequence (Q8NI35 238-335): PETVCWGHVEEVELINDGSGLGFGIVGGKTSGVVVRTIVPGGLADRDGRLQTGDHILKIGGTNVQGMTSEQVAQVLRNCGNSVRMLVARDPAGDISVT
row,Binder,pKd
1,"TRKRSGEAAV [PFKM, P08237]",below the threshold

# Target: NOS1, P29475
# Experiment: holdup assay
# Parameters: key: below the threshold = too weak to quantify, mostly under pKd 3.1 to 4
# Conditions: plain residues with an end cap or a label only (N-terminal biotin on a linker: ado-ado)
# NOS1, P29475, sequence (P29475 9-101): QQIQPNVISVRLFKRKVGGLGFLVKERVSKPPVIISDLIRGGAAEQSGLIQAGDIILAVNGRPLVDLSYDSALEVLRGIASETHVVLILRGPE
row,Binder,pKd
1,"TRKRSGEAAV [PFKM, P08237]",4.16

# Target: T6, APBA1_1, Q02410
# Experiment: holdup assay
# Parameters: key: below the threshold = too weak to quantify, mostly under pKd 3.1 to 4
# Conditions: plain residues with an end cap or a label only (N-terminal biotin on a linker: ado-ado)
row,Binder,pKd
1,"TRKRSGEAAV [PFKM, P08237]",below the threshold

# Target: T7, GRIP1_4, Q9Y3R0
# Experiment: holdup assay
# Parameters: key: below the threshold = too weak to quantify, mostly under pKd 3.1 to 4
# Conditions: plain residues with an end cap or a label only (N-terminal biotin on a linker: ado-ado)
row,Binder,pKd
1,"TRKRSGEAAV [PFKM, P08237]",below the threshold

# Target: T8, LRRC7, Q96NW7
# Experiment: holdup assay
# Parameters: key: below the threshold = too weak to quantify, mostly under pKd 3.1 to 4
# Conditions: plain residues with an end cap or a label only (N-terminal biotin on a linker: ado-ado)
row,Binder,pKd
1,"TRKRSGEAAV [PFKM, P08237]",below the threshold

# Target: PARD3_3, Q8TEW0
# Experiment: holdup assay
# Parameters: key: below the threshold = too weak to quantify, mostly under pKd 3.1 to 4
# Conditions: plain residues with an end cap or a label only (N-terminal biotin on a linker: ado-ado)
# PARD3_3, Q8TEW0, sequence (Q8TEW0 582-685): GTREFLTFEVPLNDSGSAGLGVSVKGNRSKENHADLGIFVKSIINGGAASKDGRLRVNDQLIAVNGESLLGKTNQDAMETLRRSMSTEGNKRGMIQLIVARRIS
row,Binder,pKd
1,"TRKRSGEAAV [PFKM, P08237]",below the threshold

# Target: T9, PARD3B_1, Q8TEW8
# Experiment: holdup assay
# Parameters: key: below the threshold = too weak to quantify, mostly under pKd 3.1 to 4
# Conditions: plain residues with an end cap or a label only (N-terminal biotin on a linker: ado-ado)
row,Binder,pKd
1,"TRKRSGEAAV [PFKM, P08237]",below the threshold

# Target: T10, TIAM2, Q8IVF5
# Experiment: holdup assay
# Parameters: key: below the threshold = too weak to quantify, mostly under pKd 3.1 to 4
# Conditions: plain residues with an end cap or a label only (N-terminal biotin on a linker: ado-ado)
row,Binder,pKd
1,"TRKRSGEAAV [PFKM, P08237]",below the threshold

# Target: T11, LIN7A, O14910
# Experiment: holdup assay
# Parameters: key: below the threshold = too weak to quantify, mostly under pKd 3.1 to 4
# Conditions: plain residues with an end cap or a label only (N-terminal biotin on a linker: ado-ado)
row,Binder,pKd
1,"TRKRSGEAAV [PFKM, P08237]",below the threshold

# Target: DLG2_2, Q15700
# Experiment: holdup assay
# Parameters: key: below the threshold = too weak to quantify, mostly under pKd 3.1 to 4
# Conditions: plain residues with an end cap or a label only (N-terminal biotin on a linker: ado-ado)
# DLG2_2, Q15700, sequence (Q15700 189-283): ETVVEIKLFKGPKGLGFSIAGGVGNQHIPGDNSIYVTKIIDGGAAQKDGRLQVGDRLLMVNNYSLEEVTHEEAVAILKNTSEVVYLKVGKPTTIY
row,Binder,pKd
1,"TRKRSGEAAV [PFKM, P08237]",3.59
